Where a chain is given by its changes, count along the chain named.

This note sets out measurements from patent publication US20240352438A1, “MEANS AND METHODS FOR DETOXIFYING OCHRATOXIN A” (DSM Austria GmbH, priority 2021, published 2024).

B1: 231 (protein)
chain: MTTRTRILTAFLSLLAANACAADAAPAAPHTVVLRAARMFDGASGKLVDHPQLTIVGNKIVRIAQGDKAEVPAGAEVVDLGDATLLPGFIDAHVHLSGQSSDNWYGDFFDNMMRFPAEQALYGAYYARITLEAGFTSVRDVGSTDWVALGLRNAIDAGKVPGPRMLVSNYAVGSTGGHADQDPIPPHKLPLAGPLQGVCNGPEECRAAVRYQIKYGANVIKFMPSGGVLSLSNPVDAPELSQDEMNAVIGESHAWGRKVAAHAHGDKAAKMAVAAGVDSIEHGSFIEDDTLRAMKAKNVYLVPTISAIAHVEEKIGTFPPVIAEKGRAAAAHLRQTFRHAVQIGVPIALGTDAGVGAHGSNAREFRYMVENGLTPAQALLAGTANAARLLGTFDRVGTLEAGKLADVVAVPGNPIADITVTERPLFVMKDGVVVRRDAVR
modifications: exemplary polypeptide
B2: 260 (protein)
chain: B1 chain with N233D, H310E, E313A
modifications: exemplary polypeptide
B3: 241 (protein)
chain: B1 chain with N233D, H332E
modifications: exemplary polypeptide
B4: 235 (protein)
chain: B1 chain with N233D, H253N
modifications: exemplary polypeptide
B5: 242 (protein)
chain: B1 chain with N233D, H332R
modifications: exemplary polypeptide
B6: 253 (protein)
chain: B1 chain with N233D, N361Q
modifications: exemplary polypeptide
B7: 246 (protein)
chain: B1 chain with N233D, H339N
modifications: exemplary polypeptide
B8: 238 (protein)
chain: B1 chain with N233D, S284T
modifications: exemplary polypeptide
B9: 239 (protein)
chain: B1 chain with N233D, H310D
modifications: exemplary polypeptide
B10: 240 (protein)
chain: B1 chain with N233D, H310E
modifications: exemplary polypeptide
B11: 245 (protein)
chain: B1 chain with N233D, H339K
modifications: exemplary polypeptide
B12: 256 (protein)
chain: B1 chain with H187N, K188R, N233D
modifications: exemplary polypeptide
B13: 243 (protein)
chain: B1 chain with N233D, H332S
modifications: exemplary polypeptide
B14: 268 (protein)
chain: B1 chain with M112F, N233D
modifications: exemplary polypeptide
B15: 272 (protein)
chain: B1 chain with Q119E, N233D
modifications: exemplary polypeptide
B16: 248 (protein)
chain: B1 chain with N233D, A353S
modifications: exemplary polypeptide
B17: 261 (protein)
chain: B1 chain with G98S, N233D
modifications: exemplary polypeptide
B18: 237 (protein)
chain: B1 chain with N233D, S284H
modifications: exemplary polypeptide
B19: 244 (protein)
chain: B1 chain with N233D, H339E
modifications: exemplary polypeptide
B20: 247 (protein)
chain: B1 chain with N233D, H339S
modifications: exemplary polypeptide
B21: 259 (protein)
chain: B1 chain with N233D, H310D, E313A
modifications: exemplary polypeptide
B22: 262 (protein)
chain: B1 chain with G98V, N233D
modifications: exemplary polypeptide
B23: 234 (protein)
chain: B1 chain with N233D, H253A
modifications: exemplary polypeptide

The nature of the first data set: OTA detoxification activity assay (specific activity, fluorescence reduction ex/em 390/450 nm). The note with it: pH 6.0; SEQ ID NO: 1 = 100%. The format is biochemical. In short, it runs like this: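 Recombinant enzyme preparation with 200 ng/mL OTA in 100 mM sodium phosphate, at pH 6.0 and pH 7.5, 37° C. Degradation followed as the fall in fluorescence at ex/em 390/450 nm. Specific activity taken from the initial linear slope; one unit degrades 1 μmol OTA per min at a starting OTA of […].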
As to B1, the “Specific OTA detoxification activities in % compared to the enzyme of SEQ ID NO: 1, pH 6.0” value came to 20%.

B2: the “Specific OTA detoxification activities in % compared to the enzyme of SEQ ID NO: 1, pH 6.0” value is given as 83%.

Turning to B3, the “Specific OTA detoxification activities in % compared to the enzyme of SEQ ID NO: 1, pH 6.0” value was 18%.

For B4, the “Specific OTA detoxification activities in % compared to the enzyme of SEQ ID NO: 1, pH 6.0” value is reported as 56%.

As for B5, the “Specific OTA detoxification activities in % compared to the enzyme of SEQ ID NO: 1, pH 6.0” value is 41%.

With B6, the “Specific OTA detoxification activities in % compared to the enzyme of SEQ ID NO: 1, pH 6.0” value is on record as 93%.

Turning to B7, the “Specific OTA detoxification activities in % compared to the enzyme of SEQ ID NO: 1, pH 6.0” value was determined as 113%.

As for B8, the “Specific OTA detoxification activities in % compared to the enzyme of SEQ ID NO: 1, pH 6.0” value worked out at 151%.

B9: the “Specific OTA detoxification activities in % compared to the enzyme of SEQ ID NO: 1, pH 6.0” value amounted to 73%.

For B10, the “Specific OTA detoxification activities in % compared to the enzyme of SEQ ID NO: 1, pH 6.0” value is given as 86%.

Take B11: the “Specific OTA detoxification activities in % compared to the enzyme of SEQ ID NO: 1, pH 6.0” value turned out to be 62%.

As for B12, the “Specific OTA detoxification activities in % compared to the enzyme of SEQ ID NO: 1, pH 6.0” value came to 116%.

As for B13, the “Specific OTA detoxification activities in % compared to the enzyme of SEQ ID NO: 1, pH 6.0” value came to 37%.

On to B14, for which the “Specific OTA detoxification activities in % compared to the enzyme of SEQ ID NO: 1, pH 6.0” value came out at 25%.

Take B15: the “Specific OTA detoxification activities in % compared to the enzyme of SEQ ID NO: 1, pH 6.0” value came out at 121%.

In the case of B16, the “Specific OTA detoxification activities in % compared to the enzyme of SEQ ID NO: 1, pH 6.0” value came to 131%.

For the molecule B17, the “Specific OTA detoxification activities in % compared to the enzyme of SEQ ID NO: 1, pH 6.0” value is reported as 78%.

B18: the “Specific OTA detoxification activities in % compared to the enzyme of SEQ ID NO: 1, pH 6.0” value is listed as 49%.

For B19, the “Specific OTA detoxification activities in % compared to the enzyme of SEQ ID NO: 1, pH 6.0” value was 127%.

B20: the “Specific OTA detoxification activities in % compared to the enzyme of SEQ ID NO: 1, pH 6.0” value came out at 80%.

In the case of B21, the “Specific OTA detoxification activities in % compared to the enzyme of SEQ ID NO: 1, pH 6.0” value was found to be 56%.

B22: the “Specific OTA detoxification activities in % compared to the enzyme of SEQ ID NO: 1, pH 6.0” value is on record as 116%.

As to B23, the “Specific OTA detoxification activities in % compared to the enzyme of SEQ ID NO: 1, pH 6.0” value stood at 23%.

Staying with this data set, now noted: pH 7.5; SEQ ID NO: 1 = 100%.
On to B1, for which the “Specific OTA detoxification activities in % compared to the enzyme of SEQ ID NO: 1, pH 7.5” value was determined as 22%.

Consider B2, for which the “Specific OTA detoxification activities in % compared to the enzyme of SEQ ID NO: 1, pH 7.5” value turned out to be 81%.

For the molecule B3, the “Specific OTA detoxification activities in % compared to the enzyme of SEQ ID NO: 1, pH 7.5” value was determined as 55%.

As to B4, the “Specific OTA detoxification activities in % compared to the enzyme of SEQ ID NO: 1, pH 7.5” value was found to be 38%.

In the case of B5, the “Specific OTA detoxification activities in % compared to the enzyme of SEQ ID NO: 1, pH 7.5” value was 54%.

As to B6, the “Specific OTA detoxification activities in % compared to the enzyme of SEQ ID NO: 1, pH 7.5” value came out at 87%.

For B7, the “Specific OTA detoxification activities in % compared to the enzyme of SEQ ID NO: 1, pH 7.5” value is listed as 89%.

Consider B8, for which the “Specific OTA detoxification activities in % compared to the enzyme of SEQ ID NO: 1, pH 7.5” value stood at 97%.

Take B9: the “Specific OTA detoxification activities in % compared to the enzyme of SEQ ID NO: 1, pH 7.5” value is listed as 76%.

Take B10: the “Specific OTA detoxification activities in % compared to the enzyme of SEQ ID NO: 1, pH 7.5” value is listed as 101%.

Consider B11, for which the “Specific OTA detoxification activities in % compared to the enzyme of SEQ ID NO: 1, pH 7.5” value is given as 59%.

As for B12, the “Specific OTA detoxification activities in % compared to the enzyme of SEQ ID NO: 1, pH 7.5” value is on record as 101%.

As for B13, the “Specific OTA detoxification activities in % compared to the enzyme of SEQ ID NO: 1, pH 7.5” value is 77%.

In the case of B14, the “Specific OTA detoxification activities in % compared to the enzyme of SEQ ID NO: 1, pH 7.5” value is 39%.

Regarding B15, the “Specific OTA detoxification activities in % compared to the enzyme of SEQ ID NO: 1, pH 7.5” value came to 86%.

Consider B16, for which the “Specific OTA detoxification activities in % compared to the enzyme of SEQ ID NO: 1, pH 7.5” value was 91%.

Regarding B17, the “Specific OTA detoxification activities in % compared to the enzyme of SEQ ID NO: 1, pH 7.5” value came out at 95%.

On to B18, for which the “Specific OTA detoxification activities in % compared to the enzyme of SEQ ID NO: 1, pH 7.5” value is reported as 26%.

With B19, the “Specific OTA detoxification activities in % compared to the enzyme of SEQ ID NO: 1, pH 7.5” value was found to be 93%.

For B20, the “Specific OTA detoxification activities in % compared to the enzyme of SEQ ID NO: 1, pH 7.5” value came to 100%.

With B21, the “Specific OTA detoxification activities in % compared to the enzyme of SEQ ID NO: 1, pH 7.5” value came to 54%.

As to B22, the “Specific OTA detoxification activities in % compared to the enzyme of SEQ ID NO: 1, pH 7.5” value came to 106%.

Consider B23, for which the “Specific OTA detoxification activities in % compared to the enzyme of SEQ ID NO: 1, pH 7.5” value turned out to be 13%.

The next data set in a line: Enzymatic activity comparison: activity remaining after 65° C. for 10 min at pH 6.0, relative to SEQ ID NO: 1.
Settings: not given
The class given is physicochemical. The procedure:
To compare the temperature behavior and thermostability of selected enzymes to one another, enzyme was incubated at 65° C. for 10 min at pH 6.0. The enzymatic activity remaining after incubation was compared to the remaining activity of the enzyme of SEQ ID NO: 1 after incubation, the latter being set to 100%, see Table 16.
Regarding B1, the “Enzymatic activity remaining after incubation, compared to SEQ ID NO: 1 (set to 100%)” value is on record as 75%.

Turning to B2, the “Enzymatic activity remaining after incubation, compared to SEQ ID NO: 1 (set to 100%)” value is on record as 27%.

In the case of B3, the “Enzymatic activity remaining after incubation, compared to SEQ ID NO: 1 (set to 100%)” value is reported as 73%.

Consider B4, for which the “Enzymatic activity remaining after incubation, compared to SEQ ID NO: 1 (set to 100%)” value was found to be 56%.

Take B5: the “Enzymatic activity remaining after incubation, compared to SEQ ID NO: 1 (set to 100%)” value was 11%.

As to B6, the “Enzymatic activity remaining after incubation, compared to SEQ ID NO: 1 (set to 100%)” value amounted to 22%.

For B7, the “Enzymatic activity remaining after incubation, compared to SEQ ID NO: 1 (set to 100%)” value was determined as 27%.

In the case of B8, the “Enzymatic activity remaining after incubation, compared to SEQ ID NO: 1 (set to 100%)” value worked out at 24%.

For the molecule B9, the “Enzymatic activity remaining after incubation, compared to SEQ ID NO: 1 (set to 100%)” value worked out at 30%.

Consider B10, for which the “Enzymatic activity remaining after incubation, compared to SEQ ID NO: 1 (set to 100%)” value turned out to be 44%.

With B11, the “Enzymatic activity remaining after incubation, compared to SEQ ID NO: 1 (set to 100%)” value was 37%.

As to B12, the “Enzymatic activity remaining after incubation, compared to SEQ ID NO: 1 (set to 100%)” value is recorded as 36%.

As for B13, the “Enzymatic activity remaining after incubation, compared to SEQ ID NO: 1 (set to 100%)” value stood at 41%.

Take B14: the “Enzymatic activity remaining after incubation, compared to SEQ ID NO: 1 (set to 100%)” value is recorded as 28%.

For B15, the “Enzymatic activity remaining after incubation, compared to SEQ ID NO: 1 (set to 100%)” value was determined as 41%.

For B16, the “Enzymatic activity remaining after incubation, compared to SEQ ID NO: 1 (set to 100%)” value worked out at 38%.

In the case of B17, the “Enzymatic activity remaining after incubation, compared to SEQ ID NO: 1 (set to 100%)” value is given as 60%.

Turning to B18, the “Enzymatic activity remaining after incubation, compared to SEQ ID NO: 1 (set to 100%)” value is 14%.

Consider B19, for which the “Enzymatic activity remaining after incubation, compared to SEQ ID NO: 1 (set to 100%)” value was 33%.

Regarding B20, the “Enzymatic activity remaining after incubation, compared to SEQ ID NO: 1 (set to 100%)” value worked out at 53%.

B21: the “Enzymatic activity remaining after incubation, compared to SEQ ID NO: 1 (set to 100%)” value is recorded as 41%.

In the case of B22, the “Enzymatic activity remaining after incubation, compared to SEQ ID NO: 1 (set to 100%)” value is on record as 40%.

On to B23, for which the “Enzymatic activity remaining after incubation, compared to SEQ ID NO: 1 (set to 100%)” value worked out at 50%.
